Results: US20230357447A1 (JANUX THERAPEUTICS, published 2023)
Ends that are not written are not given here.

Assays:
[1] = target: T1, Ab-12, anti-PD-L1xCD28 non-masked antibody in Vh format; assay: competition ELISA: peptide titrated against 5 nM Ab-12; binding of Ab-12 to captured biotinylated CD28 antigen is read; table prints 'IC50 nM' but the axis is Log [Peptide, uM]; no fall of the signal
T1 construct: also called PDL1xCD28 non-masked (Vh)

[2] = target: T2, anti-CD28 scFv (SEQ ID NO: 9); assay: competition ELISA: peptide titrated against 2 nM anti-CD28 scFv; binding of the scFv to captured biotinylated CD28 antigen is read; table prints 'IC50 nM' but the axis is Log [Peptide, uM]; no fall of the signal
T2 construct: also called Anti-CD28 scFv (VH-linker 1-VL)

[3] = target: Anti-CD28 scFv (VH-linker 1-VL); assay: phage ELISA: biotinylated anti-CD28 scFv on neutravidin plate, clonal phage supernatant, anti-M13-HRP;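 note: before phage addition, wells were preincubated either with soluble CD28 protein in blocking buffer or with blocking buffer only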
[4] = target: Anti-CD28 scFv (VH-linker 1-VL); assay: phage ELISA: biotinylated anti-CD28 scFv on neutravidin plate, clonal phage supernatant, anti-M13-HRP; wells pre-incubated with soluble CD28 (competitor);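 for Phage binding ELISA CD28 scFv signal in presence of CD28: wells pretreated with soluble CD28 protein in blocking buffer before phage addition, no wash in between, reference wells got blocking buffer only, bound phage detected after washing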
[5] = target: T1, Ab-12, anti-PD-L1xCD28 non-masked …; assay: competition ELISA: peptide titrated against 5 nM Ab-12; binding of Ab-12 to captured biotinylated CD28 antigen is read
[6] = target: T1, Ab-12, anti-PD-L1xCD28 non-masked …; assay: as above; remark: listed apart in the source

B1: Peptide-11 (peptide)
peptide: WICDKSGSIMLCRA
modifications: cysteine pairing not given here; also: biotinylated, site not given here
notes: biotinylated when captured on the plate
For B1, which IC50 [1] is on record?
Its IC50 is over 100 nM.

B2: Peptide-1 (peptide)
peptide: YWYCSPSIVRCVLV
modifications: cysteine pairing not given here; also: biotinylated, site not given here
notes: as for B1
With B2 as the binder, how does the IC50 [2] read?
The IC50 was over 100 nM.

B3: Phage-451 (peptide)
peptide: MDWCPRFWWHECYA
notes: Clonal phage from the Peptide-9 library
What does the source list for B3?
Phage binding ELISA CD28 scFv signal [3]: 2.4; Phage binding ELISA CD28 scFv signal in presence of CD28 [4]: 0.503

B4: Peptide-40 (peptide)
peptide: MDWCPRDLWSECFF
modifications: cysteine pairing not given here; also: biotinylated, site not given here
notes: Synthetic biotinylated peptide loaded on streptavidin biosensors
For B4, which IC50 [5] is on record?
Its IC50 is 250 nM.

B5: Peptide-39 (peptide)
peptide: MDWCPRDLWHLCFS
modifications: cysteine pairing not given here; also: biotinylated, site not given here
notes: as for B4
Which IC50 [6] does the source give for B5 here?
Its IC50 is 480 nM.

B6: Peptide-46 (peptide)
peptide: MDWCPRHMWNYCFA
modifications: cysteine pairing not given here; also: biotinylated, site not given here
notes: as for B4
How did the IC50 [5] turn out when B6 was run?
Its IC50 is 240 nM.

B7: Phage-452 (peptide)
peptide: MDWCPRDWWHMCFN
notes: as for B3
How did the “Phage binding ELISA CD28 scFv signal” value [3] turn out when B7 was run?
The value was 2.12.

What about the “Phage binding ELISA CD28 scFv signal in presence of CD28” value [4] of the same binder?
Its value is 0.243.

B8: Peptide-37 (peptide)
peptide: MDWCPRDLWDLCFA
modifications: cysteine pairing not given here; also: biotinylated, site not given here
notes: as for B4
With B8 as the binder, how does the IC50 [6] read?
The IC50 was 1110 nM.

B9: Peptide-32 (peptide)
peptide: MDWCPIHLWHVCFN
modifications: cysteine pairing not given here; also: biotinylated, site not given here
notes: as for B4
For B9, which IC50 [6] is on record?
Its IC50 is 970 nM.

B10: Peptide-34 (peptide)
peptide: MNWCPKDIWYLCFN
modifications: cysteine pairing not given here; also: biotinylated, site not given here
notes: as for B4
How did the IC50 [6] turn out when B10 was run?
The IC50 was 1410 nM.

B11: Peptide-5 (peptide)
peptide: DNCYVIWGFEWQCR
modifications: cysteine pairing not given here; also: biotinylated when captured on plate, site not given here
notes: as for B1
Which IC50 [2] does the source give for B11 here?
Its IC50 is over 100 nM.

B12: Peptide-31 (peptide)
peptide: MDWCPIDLWNECFF
modifications: cysteine pairing not given here; also: biotinylated, site not given here
notes: as for B4
With B12 as the binder, how does the IC50 [6] read?
The IC50 was 1770 nM.

B13: Peptide-36 (peptide)
peptide: MDWCPLYLWNECFN
modifications: cysteine pairing not given here; also: biotinylated, site not given here
notes: as for B4
How did the IC50 [6] turn out when B13 was run?
The IC50 was 400 nM.

B14: Phage-453 (peptide)
peptide: MDWCPSDYWYVCFA
notes: as for B3
For B14, which “Phage binding ELISA CD28 scFv signal” value [3] is on record?
Its value is 0.707.

What about the “Phage binding ELISA CD28 scFv signal in presence of CD28” value [4] of the same binder?
Its value is 0.08.

B15: Peptide-42 (peptide)
peptide: MDWCPRDMWDECFA
modifications: cysteine pairing not given here; also: biotinylated, site not given here
notes: as for B4
For B15, which IC50 [5] is on record?
The IC50 was 440 nM.

B16: Peptide-43 (peptide)
peptide: MDWCPRDMWSECFA
modifications: cysteine pairing not given here; also: biotinylated, site not given here
notes: as for B4
Which IC50 [5] does the source give for B16 here?
Its IC50 is 240 nM.

B17: Peptide-6 (peptide)
peptide: VNCMRVHRTLTWCV
modifications: cysteine pairing not given here; also: biotinylated when captured on plate, site not given here
notes: as for B1
B17 was tested. Which IC50 [2] did it give?
Its IC50 is over 100 nM.

B18: Peptide-4 (peptide)
peptide: SFCGLFLDLWICEF
modifications: cysteine pairing not given here; also: biotinylated, site not given here
notes: as for B1
Which IC50 [2] does the source give for B18 here?
Its IC50 is over 100 nM.

B19: Peptide-35 (peptide)
peptide: MDWCPLHMWHECFS
modifications: cysteine pairing not given here; also: biotinylated, site not given here
notes: as for B4
Which IC50 [6] does the source give for B19 here?
The IC50 was 1270 nM.

B20: Peptide-10 (peptide)
peptide: GQHCATSMWRYCMF
modifications: cysteine pairing not given here; also: biotinylated, site not given here
notes: as for B1
B20 was tested. Which IC50 [1] did it give?
Its IC50 is over 100 nM.

B21: Peptide-13 (peptide)
peptide: DNCHYIWGFEWQCG
modifications: cysteine pairing not given here; also: biotinylated, site not given here
notes: as for B1
With B21 as the binder, how does the IC50 [1] read?
Its IC50 is over 100 nM.

B22: Peptide-2 (peptide)
peptide: LICKSGSILILCAQ
modifications: cysteine pairing not given here; also: biotinylated, site not given here
notes: as for B1
Which IC50 [2] does the source give for B22 here?
Its IC50 is over 100 nM.

B23: Peptide-45 (peptide)
peptide: MDWCPRFMWDECFN
modifications: cysteine pairing not given here; also: biotinylated, site not given here
notes: as for B4
How did the IC50 [5] turn out when B23 was run?
Its IC50 is 370 nM.

B24: Peptide-33 (peptide)
peptide: MDWCPIYLWSECFN
modifications: cysteine pairing not given here; also: biotinylated, site not given here
notes: as for B4
With B24 as the binder, how does the IC50 [6] read?
Its IC50 is 160 nM.

B25: Peptide-38 (peptide)
peptide: MDWCPRDLWHECFA
modifications: cysteine pairing not given here; also: biotinylated, site not given here
notes: as for B4
With B25 as the binder, how does the IC50 [6] read?
The IC50 was 350 nM.

B26: Peptide-47 (peptide)
peptide: MDWCPRSLWHECFA
modifications: cysteine pairing not given here; also: biotinylated, site not given here
notes: as for B4
How did the IC50 [5] turn out when B26 was run?
The IC50 was 450 nM.

B27: Peptide-3 (peptide)
peptide: SPCGLFQWMEICEF
modifications: cysteine pairing not given here; also: biotinylated, site not given here
notes: as for B1
With B27 as the binder, how does the IC50 [2] read?
The IC50 was over 100 nM.

B28: Peptide-44 (peptide)
peptide: MDWCPRDMWSVCFS
modifications: cysteine pairing not given here; also: biotinylated, site not given here
notes: as for B4
With B28 as the binder, how does the IC50 [5] read?
Its IC50 is 940 nM.

B29: Peptide-15 (peptide)
peptide: NCQPWYWNMFAFGC
modifications: cysteine pairing not given here; also: biotinylated, site not given here
notes: as for B1
B29 was tested. Which IC50 [1] did it give?
Its IC50 is over 100 nM.

B30: Peptide-16 (peptide)
peptide: NCQPWYWNMIAFGC
modifications: cysteine pairing not given here; also: biotinylated, site not given here
notes: as for B1
Which IC50 [1] does the source give for B30 here?
Its IC50 is over 100 nM.

B31: Peptide-7 (peptide)
peptide: FCTPREWSFLNFVC
modifications: cysteine pairing not given here; also: biotinylated when captured on plate, site not given here
notes: as for B1
For B31, which IC50 [2] is on record?
Its IC50 is over 100 nM.

B32: Peptide-8 (peptide)
peptide: CFAYLWIDSWIRVC
modifications: cysteine pairing not given here; also: biotinylated when captured on plate, site not given here
notes: as for B1
Which results are given for B32?
IC50 [1]: > 100 nM; IC50 [2]: > 100 nM

B33: Peptide-48 (peptide)
peptide: MDWCPRYLWHVCFA
modifications: cysteine pairing not given here; also: biotinylated, site not given here
notes: as for B4
Which IC50 [5] does the source give for B33 here?
The IC50 was 790 nM.

B34: Peptide-41 (peptide)
peptide: MDWCPRDLWVHCFA
modifications: cysteine pairing not given here; also: biotinylated, site not given here
notes: as for B4
How did the IC50 [5] turn out when B34 was run?
The IC50 was 150 nM.

B35: Peptide-14 (peptide)
peptide: IDCIMVHMVKPWCF
modifications: cysteine pairing not given here; also: biotinylated, site not given here
notes: as for B1
B35 was tested. Which IC50 [1] did it give?
The IC50 was over 100 nM.

B36: Peptide-17 (peptide)
peptide: GCFTWSQRTFPFTC
modifications: cysteine pairing not given here; also: biotinylated, site not given here
notes: as for B1
B36 was tested. Which IC50 [1] did it give?
The IC50 was over 100 nM.

B37: Peptide-18 (peptide)
peptide: CFYAEYYDQVYSFC
modifications: cysteine pairing not given here; also: biotinylated, site not given here
notes: as for B1
Which IC50 [1] does the source give for B37 here?
Its IC50 is over 100 nM.
